Consider two proteins from patent US20170182047A9, “Post-Translational Regulation of Catalytic Activities of Cytochrome P450 46A1 and Uses Thereof” (The Board of Regents of the University of Texas System, priority 2007, published 2017).

Substrate in data set [1]: CC(C)CCC[C@@H](C)[C@H]1CC[C@H]2[C@@H]3CC=C4C[C@@H](O)CC[C@]4(C)[C@H]3CC[C@]12C
Description: purified protein, by the assay type. Particulars: other: compound as substrate, 37.0 °C.
Description: (§1) The ability of recombinant CYP46A1 to metabolize CH-3S was tested using the reconstituted with cytochrome P450 reductase in vitro system. After termination of the enzyme reaction, the substrate and products were extracted, solvolyzed, converted into trimethylsilyl ethers and analyzed by gas chromatography-mass spectrometry as described (23). […] The reaction conditions were optimized for the formation of only one product.
(§2) The reconstituted system (1 ml) contained 0.1-0.25 μM P450, 0.5 μM NADPH cytochrome P450 oxidoreductase, varying concentrations of cold substrate (1-75 μM), 250,000 cpm of radiolabeled substrate, and 2U of catalase. […] The organic phase was isolated, evaporated, dissolved in acetonitrile, and subjected to HPLC. […] Substrate metabolism was <18% and linear with reaction time and enzyme concentration.

Substrate in data set [2]: CC(C)CCC[C@@H](C)[C@H]1CC[C@H]2[C@@H]3CC=C4C[C@@H](OS(=O)(=O)O)CC[C@]4(C)[C@H]3CC[C@]12C
Description: purified protein, by the assay type. As to conditions: other: compound as substrate, 37.0 °C.
Description: as §1, §2

B1: Δ(2-50)CYP46A1dH (Homo sapiens) (protein)
chain: MKKDEVGGRVLQDVFLDWAKKYGPVVRVNVFHKTSVIVTSPESVKKFLMSTKYNKDSKMYRALQTVFGERLFGQGLVSECNYERWHKQRRVIDLAFSRSSLVSLMETFNEKAEQLVEILEAKADGQTPVSMQDMLTYTAMDILAKAAFGMETSMLLGAQKPLSQAVKLMLEGITASRNTLAKFLPGKRKQLREVRESIRFLRQVGRDWVQRRREALKRGEEVPADILTQILKAEEGAQDDEGLLDNFVTFFIAGHETSANHLAFTVMELSRQPEIVARLQAEVDEVIGSKRYLDFEDLGRLQYLSQVLKESLRLYPPAWGTFRLLEEETLIDGVRVPGNTPLLFSTYVMGRMDTYFEDPLTFNPDRFGPGAPKPRFTYFPFSLGHRSCIGQQFAQMEVKVVMAKLLQRLEFRLVPGQRFGLQEQATLKPLDPVLCTLRPRGWQPAPPPPPC
Usually Km stands for the substrate concentration at which the rate is half of its maximum. By kcat is commonly meant the maximal rate divided by the concentration of active sites. The kcat/Km is the second-order rate constant that governs catalysis at low substrate concentration. As to B1, in data set [1] (Δ(2-50) CYP46A1), the Km was 7.7 µM, the kcat came out at 0.43 min⁻¹ and the kcat/Km came to 0.06 min⁻¹ µM⁻¹. Besides, in data set [2] (Δ(2-50) CYP46A1), the Km came to 3.3 µM.

B2: full-length CYP46A1 (Homo sapiens) (protein)
chain: MSPGLLLLGSAVLLAFGLCCTFVHRARSRYEHIPGPPRPSFLLGHLPCFWKKDEVGGRVLQDVFLDWAKKYGPVVRVNVFHKTSVIVTSPESVKKFLMSTKYNKDSKMYRALQTVFGERLFGQGLVSECNYERWHKQRRVIDLAFSRSSLVSLMETFNEKAEQLVEILEAKADGQTPVSMQDMLTYTAMDILAKAAFGMETSMLLGAQKPLSQAVKLMLEGITASRNTLAKFLPGKRKQLREVRESIRFLRQVGRDWVQRRREALKRGEEVPADILTQILKAEEGAQDDEGLLDNFVTFFIAGHETSANHLAFTVMELSRQPEIVARLQAEVDEVIGSKRYLDFEDLGRLQYLSQVLKESLRLYPPAWGTFRLLEEETLIDGVRVPGNTPLLFSTYVMGRMDTYFEDPLTFNPDRFGPGAPKPRFTYFPFSLGHRSCIGQQFAQMEVKVVMAKLLQRLEFRLVPGQRFGLQEQATLKPLDPVLCTLRPRGWQPAPPPPPC
Take B2: in data set [1] (Full-length CYP46A1), the Km stood at 5.4 µM, the kcat is on record as 0.11^2 min^−1 and the kcat/Km came out at 0.02 min⁻¹ µM⁻¹. Moreover, the Km in data set [2] (Full-length CYP46A1) is 4.9 µM.
